Source: US20250270301A1

What was measured:
[1] = target: monomeric P301S 2N4R tau, pHrodo-labelled (human) (UniProt P10636); test: cell-based or functional assay
[2] = target: aggregated (oligomeric) P301S 2N4R tau, pHrodo-labelled (human) (UniProt P10636); test: cell-based or functional assay
Chain of aggregated (oligomeric) P301S 2N4R tau, pHrodo-labelled (human) (P10636 other isoform, or with tags, fused parts or gaps P301S P301S): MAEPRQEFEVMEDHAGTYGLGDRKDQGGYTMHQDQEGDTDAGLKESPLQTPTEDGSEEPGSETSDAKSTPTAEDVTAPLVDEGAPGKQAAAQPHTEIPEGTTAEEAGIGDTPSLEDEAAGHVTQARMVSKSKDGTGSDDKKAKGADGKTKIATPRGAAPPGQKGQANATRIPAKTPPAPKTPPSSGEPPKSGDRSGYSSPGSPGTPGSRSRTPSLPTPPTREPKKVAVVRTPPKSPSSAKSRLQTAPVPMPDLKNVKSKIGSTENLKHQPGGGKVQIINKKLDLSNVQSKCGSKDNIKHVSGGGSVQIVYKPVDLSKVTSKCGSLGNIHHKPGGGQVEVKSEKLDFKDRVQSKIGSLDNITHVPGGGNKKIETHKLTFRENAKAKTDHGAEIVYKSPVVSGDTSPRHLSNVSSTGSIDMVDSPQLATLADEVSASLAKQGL

Chain of monomeric P301S 2N4R tau, pHrodo-labelled (human) (P10636 other isoform, or with tags, fused parts or gaps P301S P301S): as above

isotype control human IgG1 (anti-fluorescein, Absolute Antibody)
inhibition of monomeric tau uptake into human iPSC-derived neurons [1]: 6.2% | inhibition of aggregated tau uptake into human iPSC-derived neurons [2]: 14.3%
